Here are results for one sequence from PMC11754652.

The target of the series is T1, RheA (RheASal) (Streptomyces albidoflavus J1074) (UniProt O08247).
T1 sequence: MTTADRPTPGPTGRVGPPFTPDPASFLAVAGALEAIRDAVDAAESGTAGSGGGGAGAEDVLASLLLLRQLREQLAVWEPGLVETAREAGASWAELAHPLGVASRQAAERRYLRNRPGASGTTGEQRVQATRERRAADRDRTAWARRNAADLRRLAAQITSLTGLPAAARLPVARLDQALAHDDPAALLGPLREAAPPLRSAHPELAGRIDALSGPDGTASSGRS
The experiment in a line: EMSA. The settings on record: 20 mM Tris-HCl pH 7.5, 1 mM DTT, 5 mM MgCl2, 0.5 mg/ml BSA, 5% glycerol, 20 uL, 30 C 25 min, 4.5% native PAGE in 45 mM Tris-HCl pH 8.0, 45 mM boric acid.

For the sequence “GAGTGAACACCTCCAGAAGTCCAGGCAGTTGATGCCATGCGCTTCGCTTGGCACCGTTGTAACATGTCATCCGAACGATGACAAGCGAGTCGTCGTCCATCGGATGACGACCCGGAGTGATATC (double strand) [RS01 probe (one rheO)]”, the binding result is on record as “binds”.
